Source: paper PMC2191135

Target: platelet membrane GPIIb-IIIa complex (alpha IIb/beta 3 integrin) (human (endogenous in platelets)) (UniProt P08514)
Assay: radioligand binding

- % inhibition of fibrinogen binding at 100 uM RGDS: 92%
Binder: RGDS [arginine, glycine, aspartic acid (RGDS)]
